B1: glmS ribozyme (parent)
chain: AUAAAAGCGCCAGAACUACAGAAAUGUAGUUGACGAGGAGGAGGUUUAUCGAAUUUUCGGCGGAUGCCUCCAAA

± gives the standard error. Variants at the floor of the assay were thinned out.

The values below come from the supplement of paper PMC7125110.

The first data set covers variants of B1. The data set is described as follows: self-cleavage kobs at 2500 uM GlcN6P; higher = faster cleavage; RNA array. Conditions: with glucosamine-6-phosphate. An outline of the steps:
(§1)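 Over ~14 h at 37 °C, tiles were imaged as glucosamine-6-phosphate (40 μM to 10 mM) in HEPES/KCl/Mg(OAc)2 buffer flowed across sequenced MiSeq chips. The chips carried barcoded ribozyme variants transcribed in situ by E. coli RNA polymerase and tracked with a hybridised Cy3 probe. After normalisation to baseline and to non-cleaving reference variants, one- or two-exponential decay fits of per-tile medians gave kobs. kcat and KM followed from weighted Michaelis–Menten fits across concentrations.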
For the variant AUAAAAGCGCCAGAACUACAGAAAUGUAGUUGACGAGGGGGUGGUUUAUCGAAUUUUCGGCGGAUGUCUCCAAA [A39G A42U C67U], the “self-cleavage kobs at 2500 uM GlcN6P” value is 9.25e-05 ± 2.6e-05 s⁻¹.

As to AUAAAAGCGCCAGAACUACAGAAAUGUAGAUGACGAGGACGAGGUUUAUCGAGUUCUCGGCGGAUGCCUCCAAA [U30A G40C A53G U56C], the “self-cleavage kobs at 2500 uM GlcN6P” value is < 1e-05 s⁻¹. Turning to AUAAAAGCGCCAAAACUACAGAAAUGUAGAUGACGAGGAGGAGGAUUAUCGAAUUUGCGUCGGACGCGUCCAAA [G13A U30A U45A U57G G60U U65C C68G], the “self-cleavage kobs at 2500 uM GlcN6P” value was < 1e-05 s⁻¹. Turning to AUAAACGCGCCAGAACUACAGAAAUGUAGUUGAGGAGGAGGAGGUUUAUGGAAUUUUCGGCGGAUGCCUCCAAA [A6C C34G C50G], the “self-cleavage kobs at 2500 uM GlcN6P” value stood at 4.66e-05 ± 2.1e-05 s⁻¹. Still for that read-out and setting: next, AUAAAAGCGCCAGAACUACAGAAAUGUAGUAGACGAGGAGGAGGUUUAUCGUAUUUUCGGCGGAUGCCUCCAAA [U31A A52U]: 2.52e-05 ± 1.1e-05 s⁻¹. On the same count and under the same terms, next, AUAAAAGCGCCAGAACUACAGAAAUGUAGUUGACGAGGAGGAGGUUUAUCGAAUAUUCGGCGGAUGUGUACAAA [U55A C67U C68G C70A]: 0.000233 ± 8.8e-05 s⁻¹; AUAAAAGCGCCACAACUACAGAAAUGUAGUUGCCGAGGAGGAGGUUCAUCGAAUUUUCGGCGGUUGCCUACAAA [G13C A33C U47C A64U C70A]: < 1e-05 s⁻¹. The same measure, in the same setting: next, AUAAAAGCGCCAGAACUACAGAAAUGUAGUUGACGAGGAGGAGGUUUAUCGGAUAUUCGGCGGAUGCCUCCAAA [A52G U55A]: 0.000757 ± 0.00015 s⁻¹.

Turning to AUAAAAGCGCCAGAACUACAGAAAUGUAGUUGACGAGGACUAGGUUUAUCGAAUUUUCGGCGGAUGCCUCAAAA [G40C G41U C71A], the “self-cleavage kobs at 2500 uM GlcN6P” value is 4.86e-05 ± 1.8e-05 s⁻¹. As to AUAAAAUCGCCAGAACUACAGAAAUGUAGUUGACUAGGAGGAGGUUUAUUGAAUUUUCGGCGGAUGCCUCCAAA [G7U G35U C50U], the “self-cleavage kobs at 2500 uM GlcN6P” value is < 1e-05 s⁻¹. As to AUAAAAGCGCCACAACUACAGAAAUGUAGUUGAAGAGGAGGAGGUUUAUCGAAUUUUCGGCGGAUGUCUCCAAA [G13C C34A C67U], the “self-cleavage kobs at 2500 uM GlcN6P” value is < 1e-05 s⁻¹. Same read-out and setting: next, AUAAAAGCGCCAGAAUUACAGAAAUGUAGUUGACGAGGAGGAGGUUUAUCGGGUUUUCGGUGGAUGCCUCCAAA [C16U A52G A53G C61U]: < 1e-05 s⁻¹.

With AUAAAUGCGCCAGAGUUACAGAAAUGUAGUUGACGAGGAGGAGGUUUAUCGAAUUUUCGGCGGAUGCCUCCAAA [A6U A15G C16U], the “self-cleavage kobs at 2500 uM GlcN6P” value was found to be 5.09e-05 ± 1.6e-05 s⁻¹. Same read-out and setting: next, AUAAAAGCGCCAGAACUACAGAAAUGUAGUUGACGAGGAGGAGGUUUAUGGAAUUUCCGGCGGAUGCCUCGAAA [C50G U57C C71G]: 0.000255 ± 0.00012 s⁻¹. In the case of AUAAAAGCGCCAUAACUACAGAAAUGUAGUUGACGAGGAGGAGGUUAAUCGAAUUUUCGGCGGAUGCCUCGAAA [G13U U47A C71G], the “self-cleavage kobs at 2500 uM GlcN6P” value was 5.89e-05 ± 1.7e-05 s⁻¹. Still for that read-out and setting: as for AUAAAAGCGCCAGAACUACAGAAAUGUAGUUAACGAGGAGGAGGUUUAUCGAAUUUCCGGCGGAUGCCUCCAAA [G32A U57C], the figure is 5.22e-05 ± 1.9e-05 s⁻¹.

AUAAAAGCGCCACAACUACAGAAAUGUAGUUGACGAGGAGGAGCUUUAUCGAUUUUUCGGCGGAUGCCUCCAAA [G13C G44C A53U]: the “self-cleavage kobs at 2500 uM GlcN6P” value was < 1e-05 s⁻¹. On the same count and under the same terms, as for AUAAAAGCGCCAGAACUACAGAAAUGUAGUAGAAGAGGAGGAGGUUUAUCGAAUUUUCGGCGGAUGCCUCUAAA [U31A C34A C71U], the figure is < 1e-05 s⁻¹; as for AUAAAAGCGCCAGAUCUACAGAAAUGUAGUUGACGAGGAGGAGGUUUCUCGAAUUUUCAUCGGAUGCCUCCAAA [A15U A48C G59A G60U], < 1e-05 s⁻¹; as for AUAAAAGCGCCAGAACUACAGAAAUGUAGUUGACGAGGAGGAGGUUUCUGGAAUUUUCGGCGGCUGCCUCCAAA [A48C C50G A64C], < 1e-05 s⁻¹. Same read-out and setting: as for AUAAAAGCGCCAGAACUACAGAAAUGUAGUUGAUGAGGAGGAGGUUGAUCUAAUUUUCGGCGGAUGCCUCCAAA [C34U U47G G51U], the figure is < 1e-05 s⁻¹. The same measure, in the same setting: as for AUAAAAGCGCCAGAACUACAGAAAUGUAGGUGACGAGGAGGAGGUUUAUCGAAUUUUGGUCGGAUGCCUCCAAA [U30G C58G G60U], the figure is < 1e-05 s⁻¹; as for AUAAAAGCGCCAGAAGUACAGAAAUGUAGGUGACGAGGUGGAGGUUUAUCGAAUUUUCGGCGGAUGCCUCCAAA [C16G U30G A39U], 4.31e-05 ± 2e-05 s⁻¹. Consider AUAAAAGCGCCAGAAGUACAGAAAUGUAGAUGACGAGGAGGCGGUUUAUCGAAUUUUCGGCGGAUGCCGCCAAA [C16G U30A A42C U69G], for which the “self-cleavage kobs at 2500 uM GlcN6P” value was 0.000262 ± 6.8e-05 s⁻¹. The same measure, in the same setting: next, AUAAAAGCGCCCGAAUUACAGAAAUGUAGUGGACGAGGAGUAUGUUUAUCGAAUUUUCGGCGGAUGCCUCCAAA [A12C C16U U31G G41U G43U]: < 1e-05 s⁻¹.

For AUAAAAGCCCCAGAGCUACAGAAAUGUAGUUGACGAGGAGGAGGGUUAUCGAAUUUUCGGCGGAUGCCUCCAAA [G9C A15G U45G], the “self-cleavage kobs at 2500 uM GlcN6P” value is < 1e-05 s⁻¹.

Consider AUAAAAGCGGCAGAACUACAGAAAUGUAGUUGACGAGGAGGAAGUUUAUCGGCUUUUCGGCGGAUGCCUUCAAA [C10G G43A A52G A53C C70U], for which the “self-cleavage kobs at 2500 uM GlcN6P” value is < 1e-05 s⁻¹.

On to AUAAAAGCGCCCGAUCUACAGAAAUGUAGUUGACGAGGAGGAGGUAUAUCGAAUUUUCGGCGGAUGCCUCAAAA [A12C A15U U46A C71A], for which the “self-cleavage kobs at 2500 uM GlcN6P” value was < 1e-05 s⁻¹. For AUAAAAGCGCCAGAACUACAGAAAUGUAGUUGACGAGGAGGAGGUUUUUAGAAUUUUCGGCGGAGGCCUCCAAA [A48U C50A U65G], the “self-cleavage kobs at 2500 uM GlcN6P” value was < 1e-05 s⁻¹. Turning to AUAAAAGCGCCAGAACUACAGAAAUGUAGUUGACGAGGAGGAGGCUUAUCGAAUUCUCGGCGAAUGCCUCCAAA [U45C U56C G63A], the “self-cleavage kobs at 2500 uM GlcN6P” value was < 1e-05 s⁻¹.

Turning to AUAAACGCGCCACAACUACAGAAAUGUAAGUUGAGAGGAGGAGGUUUAUUGAAUUUUCGGCGGAUGCCUCCAAA [A6C G13C G29A U30G G32U A33G C34A C50U], the “self-cleavage kobs at 2500 uM GlcN6P” value is < 1e-05 s⁻¹. On to AUAAAAGCGCAAGCACUACAGAAAUGUAGUUGACGAGGAGGCGGUUUAUCGAAUCUUCGGCGGGUGCCUCCAAA [C11A A14C A42C U55C A64G], for which the “self-cleavage kobs at 2500 uM GlcN6P” value is < 1e-05 s⁻¹.

In the next data set the parent is B1. The experiment in a line: self-cleavage kobs at 10000 uM GlcN6P; higher = faster cleavage; RNA array. The note with it: with glucosamine-6-phosphate. In short, it runs like this:
as §1
Regarding AUAAAAGCGCCAGAACUACAGAAAUGUAGUAGACGAGGAGGAGGUUUAUCGUAUUUUCGGCGGAUGCCUCCAAA [U31A A52U], the “self-cleavage kobs at 10000 uM GlcN6P” value came to 8.67e-05 ± 1.5e-05 s⁻¹. On the same count and under the same terms, as for AUAAAAGCGCCAGAACUACAGAAAUGUAGUUGACGAGGAGGAGGUUUAUCGGAUAUUCGGCGGAUGCCUCCAAA [A52G U55A], the figure is 0.00185 ± 0.00032 s⁻¹; as for AUAAAAGCGCCAGAACUACAGAAAUGUAGUUGACGAGGACUAGGUUUAUCGAAUUUUCGGCGGAUGCCUCAAAA [G40C G41U C71A], 0.000104 ± 1.6e-05 s⁻¹; as for AUAAAAGCGCCAGAACUACAGAAAUGUAGUUGACGAGGAGGAGGUUUAUGGAAUUUCCGGCGGAUGCCUCGAAA [C50G U57C C71G], 9.26e-05 ± 3.1e-05 s⁻¹.

Consider AUAAAAGCGCCAGAAGUACAGAAAUGUAGGUGACGAGGUGGAGGUUUAUCGAAUUUUCGGCGGAUGCCUCCAAA [C16G U30G A39U], for which the “self-cleavage kobs at 10000 uM GlcN6P” value is 0.000103 ± 2.8e-05 s⁻¹.
